This series in a line: soluble on expression in E. coli; label from the status in PepcDB or PDB records.
With “MAHHHHHHMLSKGNVKNLATDEINEMIDNSLKSGDTDEAPYFLQQNNIYWETGHRTYIPFFHFMIHKYTTKIIDDQIRKFTESVKSVHHTPYVFHKDGYFRSYYGDPDINMVFNLKKNTNFIFNSTGTHNSYSLLCNNNTYDKSTHIFDQVLMSAFKLDLKSVLENNV”, the “soluble on expression in E. coli” value is listed as “not soluble”.

As to “MHTQVHTARLVHTADLDSETRQDIRQMVTGAFAGDFTETDWEHTLGGMHALIWHHGAIIAHAAVIQRRLIYRGNALRCGYVEGVAVRADWRGQRLVSALLDAVEQVMRGAYQLGALSSSARARRLYASRGWLPWHGPTSVLAPTGPVRTPDDDGTVFVLPIDISLDTSAELMCDWRAGDVW”, the “soluble on expression in E. coli” value is recorded as “soluble”.

Turning to “MSSIGKEDIYESDGAASQVQKSEPENDNPTHPDIELISVDVDEALKKYKNRVLNLTSSDFSDSIAKKRRHAFGNNQYVLEVTGAGFSGTETAAEKLNRILYEVADLNEQIRADENLKTDLLNAEVLENLEKEVKTLQVAQSNGKTARVEHDVELPNVRTDSKVATLENRLRRIEQVIGSSVIPSAPVLDTIEDLKLRCETLNHSYVSGLEQRLNMMLTKLEKIDETRANNDIDENLDKKVDEILELMQKWDVACSSLPSNVNKVKALNRLHEQVQHFAGGLSHLKTIREKLEKEVAQGREAIIEYESQGKQEIGSVVEKLKLLEAKVADLK”, the “soluble on expression in E. coli” value is on record as “not soluble”. The result for “MGSDKIHHHHHHMGSQLFVRNGRKMQLTESGKKLYIATHKAFDTLLKGFNSIQTEDVAGTLTITSTQAFTSLWLMPRLYKFSIKHPEIKVKVVSSNGLEDLRRGHIDLAIRFITNKEVDTSDDMTYEFIAEDHVYPACSPQLMKEYNFKEPQDVLKCWLVSLENQGSIDWRTWFKEAGVENYQCHKKWTEVSSGDMALSAVLSGHGFTLASQALFSQYVITGQLVIPFNIKHPISFKRYFVFDPNSAKKERVNVFTTWLKEETLQDEKSTLEAISYGSL” reads “not soluble”. As for “MGSDKIHHHHHHMIQSVRIKNFKNFKNTKIDGFTKLNIITGQNNAGKSNLLEALYYLVGKSMHPCTNVLEIYDNIRKEPLTSESKSLMFYGLDTKEEIQIVTTLDNNQTLDLQIKFIASENQKVIESQIIPTAEQTQMSSQLNFTLKKNNEEIYNDHLNIAKVPNFPPIPNQSGYNRQFKNFDSNQLQKLLPFESAVIIPSDVVYRQAHMIQAVSKICSNNQLEEELNKHLNQFDNNIQAISFNTNNQLKLKVKDIKEKVPLSVFGDGLKKYLHIVSAFMADNAKTIYIDEVENGLHFSRMRLLLKNTIDFINNNKDGNLQVFMTTHSQEFIEILDQVIREKDFAHQTKLFCLKQDDQYVIPRTYYGENLEYYFENEENLFG”, the entry is “not soluble”; as for “MSLADKLSLETLESWLWESANILRGSIDSSDFKNYIFGLLFLKRYNDVFDERVTKLREEENLSYGEAQEEIEDKWGKYPISARWFDLISRTENIGEALDKAFATIEANNPELQHVLTATQYGDKRVLADATLQRLLRHFNQYKLGNDDLYKADMLGDAYEYLIKQFADDAGKKGGEFYTPKAVVQLVVELIDPRPGHSVYDPTCGSGGMLVESAHHVSGLPDGTLMGKPNVLLYGQEKNLGTWAIAKLNLYLHNMHASIERGDTLVEPKHLDGDYLKTFDRVIANPPFSAKSWWTPLELSNENEQENGKKVKAPNYKQVSDPYGRLVYGVPPRGYADLAFAQHMLASLKADGRMGVILPHGVLFRSGEEGKIREGLLFGTGAASGNQPGDVIEAIVGLPSALFYNTGIPACVLILNKQKPSALKDKVIIIDGSRDYLEGKAQNSLHAEDILRIVSTHKAAFEQQVEVENYCRLVTLDEIRSNDGNLNIVRYIDNGESDEVVNVAATLAHMATLAKEEAQIDQRLNRYLMELGLLETGEGHHHHHH”, “soluble”; as for “MLFDMLHSFHESRVIKSHHNLTQQPVSTFLLMGLDNSGKRKLSTTRTDGMMVVIVNHKTKTMTLCSLLRDTFVKIHSQQYHGYQRIESAYTYGGDAAAIATVEHYLNLPIDYYLTVNWDGFIRAIDDIGPVEVNVDRDFIGQDYWGKPEKFKAGLQSMSGARALAYARERHIDNDQHRGFRQQAVFYAMVKRLNQEGLSSKGAKVVGDLKDQMRTNLTNHDMLTLFKSRKTFKRYRVKRLTFQWRTFDVAGRSMVEVYPDSRVQVSRQLQAAAGLRPDLPSQTFTTNGHYRYASDESVESKADEAKADTHYGQSHVYVGHAGNTTIGKLPAAVPLKNGFRVSDRTETMYTVHLEHHHHHH”, “soluble”. As for “MASISEKMVEALNRQINAEIYSAYLYLSMASYFDSIGLKGFSNWMRVQWQEELMHAMKMFDFVSERGGRVKLYAVEEPPSEWDSPLAAFEHVYEHEVNVTKRIHELVEMAMQEKDFATYNFLQWYVAEQVEEEASALDIVEKLRLIGEDKRALLFLDKELSLRQFTPPAEEEK”, the entry is “soluble”; as for “MSVRLPLLLRQLGRQQLPSGPACRLRELCRSGSRSSSSGGGDPEGLRGRRLQDGQTFSSHGPGNPEAPGMDSIVRDVIHNSKEVLSLLQEKNPAFKPVLVVIQAGDDNLMKDMNQNLAKEAGLDITHICLPPDSGEDEIIDEILKINEDPRVHGLTLQISEDSLSNKVLNALKPEKDVDGVTDINLGKLVRGDAPECFVSPLAKAAVELVEKSGITLDGKKVLVVGAHGPLEAALQWLFQRKGFMTMSCPWAPPQLPDKLREADIVVLGSPKPEEIPAVWIPSGTTILNCFHDFLSGKLSGGSPGVPVDKLIAEESVSLLAAALRIQNMVSSGRRWLREQQHRRWRLHCLKLQPLSPVPSDIEISRGQTPKAVDVLAKEIGLLADEIEIYGKSKAKVQLSLLERLKDQTDGKYVLVAGITPTPLGEGKSTVTIGLVQALTAHLKVNSFACLRQPSQGPTFGVKGGAAGGGYAQVIPMEEFNLHLTGDIHAITAANNLLAAAIDTRILHESTQTDKALYNRLVPLVNGVREFSEIQLSRLKKLGIHKTDPSTLTEEEVRKFARLNIDPATITWQRVLDTNDRFLRKITIGQGSTEKGYSRQAQFDIAVASEIMAVLALTDSLTDMKERLGRMVVASDKDGQPVTAEDLGVTSALTVLMKDAIKPNLMQTLEGTPVFVHPGPFANIAHANSSVLTDKIALKFVGEEGFVVTEAGFGADIGMEKFFNIKCRASGLVPNVVVLVATVRALKMHVGGPSVTAGVPLKKEYTEENIQMVADGCCNLQKQIQIAQLFGVPVVVALNVFKTDTRAEIDLVCELAKRAGAFDAVPCYHWSAGGKGSVDLARAVREAANKRSRFQFLYDVQLPIVEKIRVIAQTVYGAKDIELSPEAQSKIDRYTQQGFGNLPICMAKTHLSLSHEPDKKGVPRDFTLPISDVRASIGAGFIYPLVGTMSTMPGLPTRPCFYDIDLDTETEQVKGLF”, “soluble”. Consider “MEKLRMNVQGRVQGVGFRYMTKMVADQLGVTGSVRNEDDGSVSITAIAPEDIMETFIKKIKDSPSPAGRVTYVDIQEDPLLEETEQFKVIQ”, for which the “soluble on expression in E. coli” value is listed as “soluble”. The result for “MSLKPSVVLNGDAITLGDIWENIGDKAGTPLANAPAPGKRITLETRWLMAVAQSYGIDWRPASPFERSVVERAGQSVDIRAIETELKEALSMEGAPAGASIEISNRQQLHIVIPATASPTVAVKDLAYDPRMNRFQAVVEAPAGAPNSVRFKVMGSVYASARIPVLAHAMGRGDVIREDDIQWVDVREEVVRRDIISNARMLVGQEPRYQLRAGVPVRTNEVQKPVVVAKNSSVTIMLRSKFMTLTAQGRAIEDGSVGDVIRVTNVQSKQTVDAKIEGPGQVSVMPGGLRTLANEGHHHHHH” reads “not soluble”; that for “MSLKRVMLKISGEALAGTNGYGIDFEVANRIAKEIKEIVDLGIEVGAVVGGGNIWRGRNGKGMDRTTADYMGMLATCINALALQDSLENMDVDTRVQTAIEMKQVAEPFIRRRAMRHLEKGRVVIFAGGTGNPYFSTDTTAALRAAEIEADVILLAKKVDGVYDKDPHKYDDAIKFDNLTYMEVLEKNLQVMDSTATSLCMDNNIPIIVFGLDVSGNIRKAVLGEKIGTIVSKEGHHHHHH”, “soluble”. With “MKELRVKNQYEKHKEVEAAQGVKILGKDLEKTLAGLPLLVAYKDDEIPVLKDELIHELKQTLNAIKLEEKGVYVQASTLGSLEALLEFLKTSEVPYAGINIGPVHKKDVMKASVMLEHDPQYAVILAFDVRIERDAQEMADSLGVRIFSAEIIYHLFDAFTKYRQDYKKQKQEEFKHIAVFPCKMKILPQYIFNSRDPIVIGVTVEAGQVKQGTPMCVPSKNFVDIGIVTSIEINHKQVDVAKKGQEVCVKIEPIPGESPKMFGRHFEATDILVSKISRQSIDALKDWFRDEMQKSDWQLIVELKKVFEII”, the “soluble on expression in E. coli” value is reported as “soluble”.

For the origin of these results see the DeepSol protein solubility set.
